From patent US20190202925A1 (OPI VI IP HOLDCO, published 2019)
Read-outs that look alike come from different tables or passages of the source. Each block holds one binder with its values, some of them ahead of it.

Columns and labels:
[1] = target: T1, human TNFR2 on cells (human, UniProt P20333 23-461); test: flow cytometry on human PBMC, antibody at 10 ug/mL, anti-human Fc-PE secondary
T1 construct: whole, on cells; also called TNFR2 on Jurkat clone H6; human TNFR2 on CD4+ and CD8+ T cells
T1 sequence (looked up): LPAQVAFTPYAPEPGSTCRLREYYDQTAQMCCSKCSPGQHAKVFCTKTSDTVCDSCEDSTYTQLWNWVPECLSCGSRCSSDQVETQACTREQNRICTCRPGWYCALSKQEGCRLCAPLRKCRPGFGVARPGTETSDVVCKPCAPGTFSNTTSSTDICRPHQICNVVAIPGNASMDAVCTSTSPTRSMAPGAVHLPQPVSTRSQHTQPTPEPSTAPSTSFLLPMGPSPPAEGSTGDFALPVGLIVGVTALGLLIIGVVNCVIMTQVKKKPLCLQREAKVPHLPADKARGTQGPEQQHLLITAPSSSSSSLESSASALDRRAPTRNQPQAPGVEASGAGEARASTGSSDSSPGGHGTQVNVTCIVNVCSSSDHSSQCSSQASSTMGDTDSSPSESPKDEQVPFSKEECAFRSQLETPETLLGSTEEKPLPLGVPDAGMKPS
Description: The following day 0.3×10⁶ PBMC were counted and washed with PBS (Lonza). PBMCs were resuspended in Fixable Viability Stain 575V (BD) diluted 1:1,000 in PBS and incubated for 10 minutes. PBMCs were then washed twice in PBS to remove residual viability stain. PBMCs were then resuspended in Horizon Brilliant Stain Buffer (BD) with 10 uL per test of human Fc receptor binding inhibitor (eBioscience) and incubated on ice for 20 minutes to block Fc receptors. […] PBMCs were incubated 20 minutes on ice and then washed three times with 2% FBS PBS. To visualize TNFR chimeric antibody binding, PBMCs were resuspended in goat anti-human Fc-PE F(ab′)₂ secondary reagent (Jackson ImmunoResearch) diluted 1:200 in 2% FBS PBS and incubated on ice for 20 minutes. Cells were then washed three times in 2% FBS PBS and resuspended in 200 uL 2% FBS PBS for flow cytometry analysis using a BD FACS Celesta instrument and FACS Diva software. T cells were analyzed for chimeric TNFR2 binding by gating on viable cells defined as lymphocytes using forward and side scatter and as T cells by anti-CD3 staining. CD4⁺ and CD8⁺ subsets were identified by commercially available specific antibody conjugates.

[2] = target: T2, soluble human TNFR2 (human, UniProt P20333 23-257); test: competition ELISA, plate-bound soluble human TNFR2, biotinylated TNFα as competitor
T2 construct: also called soluble TNFR2
T2 sequence (looked up): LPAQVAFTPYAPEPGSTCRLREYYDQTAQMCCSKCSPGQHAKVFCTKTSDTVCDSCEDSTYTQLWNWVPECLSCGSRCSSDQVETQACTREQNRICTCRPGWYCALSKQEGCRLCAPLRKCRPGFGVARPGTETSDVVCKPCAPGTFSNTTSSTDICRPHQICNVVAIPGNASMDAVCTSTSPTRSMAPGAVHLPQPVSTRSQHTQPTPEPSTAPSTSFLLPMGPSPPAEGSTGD
Description: (§1) Soluble human TNFR2 (Sino Biological, 10417-H08H) or cynomolgus TNFR2 (Sino Biological, 90102-C08H) was coated on Nunc-Immuno™ plates at 0.1 μg/ml, 0.5 ug/ml, 1 μg/ml, and 5 μg/ml. […] Plates were developed using TMB and stopped with 3 M HCl.
IC₅₀ values are reported in nM.

[3] = target: T2, soluble human TNFR2; test: competition ELISA: plate-bound soluble human TNFR2, competitor biotinylated TNFα, streptavidin-HRP, A450
Description: as §1

[4] = target: T2, soluble human TNFR2; test: as above; remark: listed apart in the source
Description: as §1

% CD4^+ ab^+ Donor 1 [1]: 47.6% | % CD4^+ ab^+ Donor 2 [1]: 38.3% | % CD8^+ ab^+ Donor 1 [1]: 24.3% | % CD8^+ ab^+ Donor 2 [1]: 18.9% | Average Relative IC50 [2]: 2.91 nM | IC50 [3]: 7.53 nM | IC50 [4]: 16.5 nM
B1: chimeric SBT-002 (antibody, V domains shown)
VH: QVTLKESGPGILQPSQTLSLTCSFSGFSLSTSGMGVGWIRQPSGKGLEWLAHIWWDDDKFYNPSLKSQLTISKDTSRNQVFLKLTSVVTADTATYYCARLTGTRYFDYWGQGTTLTVSS
VL: DVQMTQSPSSLSASLGGKVTITCKASQDINKFIAWYQHKPGKGPRLLIHYTSTLQPGIPSKFSGSGSGRDYSFSISNLEPEDIATYYCLQYGNLWTFGGGTKLEIT
notes: also called chSBT-002

% CD4^+ ab^+ Donor 1 [1]: 38.4% | % CD4^+ ab^+ Donor 2 [1]: 26.4% | % CD8^+ ab^+ Donor 1 [1]: 18.8% | % CD8^+ ab^+ Donor 2 [1]: 16.1% | Average Relative IC50 [2]: 5.07 nM | IC50 [3]: 16.7 nM | IC50 [4]: 19.6 nM
B2: chimeric SBT-004 (antibody, V domains shown)
VH: EVQLQQSGPEVGRPGSSVKISCKASGYTFTDYIMHWVKQSPGQGLEWIGWVDPEYGSTDYAEKFKKKATLTADTSSNTAYIQLSSLTSEDTATYFCARDDGSYSPFDYWGQGVMVTVSS
VL: DIQMTQSPPSLSASLGDKVTITCQASQNINKYIAWYQQKPGKAPRLLIRYTSTLESGTPSRFSGSGSGRDYSFSISNVESEDIASYYCLQYVNLLTFGAGTKLEIK
notes: VH fused to a human IgG1 Fc domain; also called chSBT-004
